Patent publication US6462173B1, “Inhibitors of phosphoserine and phosphothreonine-proline-specific isomerases” (Max-Planck-Gesellschaft zur Forderung der, priority 1997, dated 2002)

Assays:
AEPF-pNA = test system: T1, AEPF-pNA
T1 sequence: AEPFNA

AAPF (peptide substrate) = test system: T2, AAPF (peptide substrate)
T2 sequence: AAPF

Substance: GST-Pin1^H59A
- PPIase activity (AEPF-pNA): The PPIase activity of Pin1^H59A was barely detectable against either peptide substrate
- PPIase activity (AAPF (peptide substrate)): The PPIase activity of Pin1^H59A was barely detectable against either peptide substrate
